From publication PMC4975007 come the findings set out here.

The target of this series is Dbp2 (MBP-TEV-Dbp2 construct) (Saccharomyces cerevisiae, UniProt P24783 1-546). The series can be described thus: fluorescence anisotropy.
Dbp2 (MBP-TEV-Dbp2 construct), sequence (P24783 whole entry): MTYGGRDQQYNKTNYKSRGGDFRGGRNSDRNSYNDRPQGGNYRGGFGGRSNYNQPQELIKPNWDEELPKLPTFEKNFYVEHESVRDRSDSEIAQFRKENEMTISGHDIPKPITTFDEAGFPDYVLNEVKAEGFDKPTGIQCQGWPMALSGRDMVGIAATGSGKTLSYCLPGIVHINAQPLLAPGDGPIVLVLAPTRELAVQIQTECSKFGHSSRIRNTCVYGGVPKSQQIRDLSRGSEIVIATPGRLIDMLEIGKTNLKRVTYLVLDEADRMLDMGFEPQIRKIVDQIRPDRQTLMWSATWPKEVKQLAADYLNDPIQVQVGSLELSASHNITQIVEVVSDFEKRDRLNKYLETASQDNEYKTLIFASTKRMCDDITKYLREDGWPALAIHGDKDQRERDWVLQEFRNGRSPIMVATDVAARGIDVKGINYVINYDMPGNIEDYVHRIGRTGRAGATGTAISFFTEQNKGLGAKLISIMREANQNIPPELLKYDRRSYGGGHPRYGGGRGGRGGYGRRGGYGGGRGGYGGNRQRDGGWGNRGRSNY

With AGCACCGUAAAGACGC (ssRNA) [16 nt ssRNA, 6-FAM], the Kd (in general, a measure of binding affinity in units of concentration) was determined as 38 nM.
